Test results published in patent publication US20020123056.

Test system: T1, GST-SGK2 fusion protein (human SGK2 with N-terminal Glutathione S-transferase tag, expressed in Hi5 insect cells)
T1 sequence: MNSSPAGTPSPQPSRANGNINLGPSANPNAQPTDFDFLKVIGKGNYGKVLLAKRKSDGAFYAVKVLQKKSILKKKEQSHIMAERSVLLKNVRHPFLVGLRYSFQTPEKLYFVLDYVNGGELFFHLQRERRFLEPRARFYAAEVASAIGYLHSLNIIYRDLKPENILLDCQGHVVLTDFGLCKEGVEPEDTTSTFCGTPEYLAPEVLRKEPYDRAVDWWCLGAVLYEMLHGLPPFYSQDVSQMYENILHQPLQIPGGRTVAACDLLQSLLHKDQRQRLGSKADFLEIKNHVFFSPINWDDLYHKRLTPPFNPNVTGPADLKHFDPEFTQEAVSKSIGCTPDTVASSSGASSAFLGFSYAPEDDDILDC

Substance: active His-tag PDK1 (expressed in insect cells, purified on Talon affinity column)
- in vitro phosphorylation of SGK2 by PDK1 (32P, SDS-PAGE imaging): SGK2 activated by PKD1 was significantly phosphorylated, while non-activated SGK2 was not
